Measurements published in article PMC6424980, “Distinct G protein-coupled receptor phosphorylation motifs modulate arrestin affinity and activation and global conformation” (Nature Communications, 2019).
Non-standard residues stand in square brackets, D forms with d. No end group written: not given here. pT = C[C@@H](OP(=O)(O)O)[C@H](N)C(=O)O; pS = N[C@@H](COP(=O)(O)O)C(=O)O

Columns and labels:
[1] = molecular target: fully phosphorylated peptide 7P of the bovine rhodopsin C-terminus (bovine); assay: fluorescence polarisation; fluorescence anisotropy; 20 nM fluorescently labelled peptide, 11-step serial dilution of arrestin; 20 mM Bis-Tris propane pH 7.0, 150 mM NaCl, 8 mM 2-mercaptoethanol, 2% BSA, 0.02% Tween-20; RT; one-to-one binding model
arrestin-1 (F85A, F197A) = assay: Limited trypsin digestion of arrestin-1 in presence of peptide; format: biochemical, bovine; conditions: arrestin:peptide 1:1.2, 35 °C, SDS PAGE
Source text: Synthesized cDNAs of bovine arrestin-1, human arrestin-2 and human arrestin-3 were ordered from Genewiz, amplified by PCR and cloned (Supplementary Information Table 5) into the pET-15b vector (Novagen), using the Gibson Assembly protocol. The constructs contained an N-terminal hexa histidine tag linked by a linker that contained a Tobacco Etch Virus cleavage site (TEV; […]). PCR was used to introduce the monomerizing arrestin-1 mutations (F85A, F197A)[58]. Note that this mutant was employed for fluorescence anisotropy, trypsin digestion, and NMR experiments. Wild-type arrestin-2 and -3 were used for fluorescence anisotropy and trypsin digestion experiments. […] The arrestin-1 in this construct had the wild-type sequence. Note that this construct differs slightly from that previously published[59],[60] and was optimized for purification. We verified the functionality of this fusion construct using the standard centrifugal pull-down assay using phosphorylated rhodopsin in native ROS membranes.
Arrestin (60 µg) was mixed at a 1 to 1.2 molar ratio with peptide and preincubated at RT for 5 min before 1 μl of 0.15 mg/ml trypsin stock was added. The enzymatic digestion was carried out at 35 °C (20 mM Bis-Tris propane pH 7.0, 150 mM NaCl, 10 mM 2‑Mercaptoethanol and 2 mM EDTA). At certain time points (5, 15, 30, 60, 90 min), 5 μl aliquots were quenched with heat incubation in the presence of 20 μl SDS loading buffer (95 °C, 5 min) and then subjected to SDS PAGE. Bands were visualized with InstantBlue (Expedeon).

arrestin-1 = assay: [15N,1H]TROSY NMR titration of arrestin-1 with peptide; format: binding, bovine; conditions: peptide:arrestin-1 up to 10:1
Method: ^2H,^15N,^13C-labeled arrestin-1 aliquots were thawed quickly under running water, transferred to 30 kDa-cutoff Vivaspin (0.5 ml, Sartorius) centrifugal spin concentrators, and concentrated to approximately 600 μM. The concentrator was immediately transferred into a beaker filled with 400 ml of NMR buffer 1 or 2 (see below) carried by a floatation device. The dialysis was performed at 4 °C overnight. On the next day the concentration was determined by UV absorbance at 280 nm (molar extinction coefficient 26,360/mol/cm). […] The dialysis was performed at 4 °C overnight, and the peptide concentration was determined by its absorbance at 205 nm (molar extinction coefficient: 54,310/mol/cm). […]
NMR measurements were performed on Bruker Avance III-HD 600 or 900 MHz spectrometer using a CTCI cryo-cooled probehead. […] Pulse lengths were calibrated for ^1H manually and for ^13C/^15N using an in-house automated procedure. pH was monitored using the position of the phosphate signal in NMR buffer 2 as an internal reference and varied by no more than 0.03 pH units during peptide titration experiments. [^15N,^1H]TROSY experiments were recorded with internal ETH pulse sequences, whereas 3D triple resonance TROSY experiments were recorded using the manufacturer’s pulse sequences. […]

[2] = molecular target: bovine arrestin-1 with the monomerizing mutations F85A, F197A (bovine, UniProt P08168 2-404, F85A | F197A); assay: FP

bovine arrestin-1 with the monomerizing mutations F85A, F197A (from UniProt P08168 2-404) (natural protein)
Kd [1]: < 250 µM

CDDEASTTVSKTETSQVAPA [0P, nonphosphorylated peptide analog of the bovine rhodopsin C-terminus with N-terminal cysteine]
limited trypsin digest pattern of arrestin-1 (conformational change, C-tail displacement) (arrestin-1 (F85A, F197A)): three major bands
NMR chemical shift / peak changes in arrestin-1 (in words) (arrestin-1): some minor changes in peak intensity

C(fluorescein‑5‑maleimide)DDEASTTVSK[pT]ET[pS]QVAPA (also: third phosphorylation site not given here) [tri-phosphorylated peptide 3Pd of the bovine rhodopsin C-terminus]
Kd [2]: 94 µM
